According to the nanobody polyreactivity screen of Harvey et al. (2022):

Assay: yeast display, Sf9 membrane polyspecificity reagent, FACS + sequencing; frameworks hold sequencing errors
In short: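 Using colony PCR, genes from sorted yeast display clones were amplified, then sequenced on MiSeq at 2 × 250 and filtered by CDR length. The clones had been stained with 10% biotinylated, detergent-solubilized Sf9 membrane reagent for 1 hour at 4 °C and sorted by FACS into low and high (top ~1%) gates on anti-HA and streptavidin fluorescence. Polyreactivity labels come from the gate of origin.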

Sequence	polyreactivity (PSR sort gate)
QVQLVESGGGLVQAGGSLRLSCAASGFTFYTNAMGWYRQAPGKEREFVAAISWSGTGTYYADSVKGRFTISRDNAKNTVYLQMNSLKPEDTAVYYCAARDRWRGGRKFDYWGQGTQVTVSS	high polyreactivity
QVQLVESGGGLVQAGGSLRLSCAASGFTFYTYAMGWYRQAPGKERELVAAINQRGGRTYYADSVKGRFTISRDNAKNTVYLQMNSLKPEDTAVYYCAKSPPPKTRYDYWGQGTQVTVSS	high polyreactivity
QVQLVESGGGLVQAGGSLRLSCAASGFTFYTYVRGWYRQAPGKERELVAAITSGVSTNYADSVKGRFTISRDNAKNTVYLQMNSLKPEDTAVYYCNKDVRPAYRWYDYWGQDTQVTVSS	low polyreactivity
QVQLVESGGGLVQAGGSLRLSCAASGFTFYWYAMGWYRKAPGKERELVAAISSSGGRTYYADSVKGRFTISRDNAKNTVYLQMNSLKPEDTAVYYCAAAHTREYYWGQGTQVTVSS	high polyreactivity
QVQLVESGGGLVQAGGSLRLSCAASGFTFYWYAMGWYRQAPGKERELVAAITIGGSTYYADSVKGRFTISRDNAKNTVYLQMNSLKPEDTAVYYCNVYGYGTEYDYWGQGTQVTVSS	high polyreactivity
QVQLVESGGGLVQAGGSLRLSCAASGFTFYYNAMGWYRQAPGKERELVAVISSSGSRTYYADSVKGRFTISRYNAKNTVYLQMNSLKPEDTAVYYCAAARIGTRDYWGQGTQVSVSS	high polyreactivity
QVQLVESGGGLVQAGGSLRLSCAASGFTFYYNDMGWYRQAPGKERELVATITNS	low polyreactivity
QVQLVESGGGLVQAGGSLRLSCAASGFTFYYYAMGWYRQAPGKERELVAAINRSGGSTYYADSVKGRFTISRDNAKNTVYLQMNSLKPEDTAVYYCNKRLLVSRSSAQPYGYWGQGTQVTVSS	high polyreactivity
QVQLVESGGGLVQAGGSLRLSCAASGFTFYYYAMGWYRQAPGKERELVATISRSGGSTYYADSVKGRFTISRDNAKNTVYLQMNSLKPEDTAVYYCAARSYKSPRDYDYWGQGTQVTVSS	high polyreactivity
QVQLVESGGGLVQAGGSLRLSCAASGFTFYYYAMGWYRQAPGTERELVASITSTDSTTYADSVKGRFTISRDNAKNTVYLQMNSLKPEDTAVYYFNRLYYHWYGGLDYWGHGTQVTVSS	high polyreactivity
QVQLVESGGGLVQAGGSLRLSCAASGFTFYYYPMGWYRQAPGKERELVAAITWRGGSTNYADSVKGRFTISRDNAKNTVYLLMISLKPEDTAVYYCAAVTYWFWPGMDYWGQGTQVTVSS	low polyreactivity
QVQLVESGGGLVQAGGSLRLSCAASGFTFYYYTMGWYRQAPGKERELVAGISGTGGSTYYADSVKGRFTISRDNAKNTVYLQMNSLKPEDTAVYYCAAGPWYWGQGTQVTVSS	low polyreactivity
QVQLVESGGGLVQAGGSLRLSCAASGFTFYYYTMGWYRQAPGKERELVAVITGGGGSTYYADSVKGRFTISRDNAKNTVYLQMNSLKPEDTAVYYCAAKFYGWYRQRGYDYWGQGTQVTVSS	high polyreactivity
QVQLVESGGGLVQAGGSLRLSCAASGFTFYYYVMGWSRQAPGKERELVAAITRSGGSTYYADSVKGRFTISRDNAKNTVYLQMNSLKPEDTAVYYCNAYVPPKAASAAYDYWGQGTQVTVSS	high polyreactivity
QVQLVESGGGLVQAGGSLRLSCAASGFTIGSNAMGWYRPAPGKEWELVAAISYTCSTYYAESVKGRFTISRDNAKNTVYLQKNSLKPEDTAVYYGNAESDTPSYDDWGQGTQVTVSS	low polyreactivity
QVQLVESGGGLVQAGGSLRLSCAASGFTIHNYAMGWYRQAPGKERELVARITRSGGTTYYADSVKGRFTISRDNAKNTVYLQMNSLKPEDTAVYYCAARRYGYTSITWYDYWGQGTQVTVSS	high polyreactivity
QVQLVESGGGLVQAGGSLRLSCAASGFTILRYAMGWYRQAPGKERDLVAAISTSGGSTSYADSVKGRFTISRDNAKNTVYVQMYSLKPEDSAVYYCKAVLYKAYWQLYDYWGQGSQVTVSS	high polyreactivity
QVQLVESGGGLVQAGGSLRLSCAASGFTIRNYAMGLYRQAPGKERELFAAIRGRGGSTYYADSVKGRFTISRDNAKNTDYLQMNSLKPEDTAVYYCARVGYASYEHDYWGQGTQVNVSS	high polyreactivity
QVQLVESGGGLVQAGGSLRLSCAASGFTISDNAMGWYRQAPGKERELVAAITSGTSTYYADSVKGRFTISRDNAKNTVYLQMNSLKPEDTAVYYCAARTYYSGYLWARGYWGQGTQVTVSS	high polyreactivity
QVQLVESGGGLVQAGGSLRLSCAASGFTISFYAMGWYRQAPGKERELVAAITWNGGNTYYADSVKGRFTISRDNAKNTVYLQMNSLKPEDTAVYYCNKDSYYYHFDYWGQGTQVTVSS	high polyreactivity
QVQLVESGGGLVQAGGSLRLSCAASGFTITYNAMGWYRKAPGKEREFVAAITNNGSTYYADSVKGRFTISRDNAKNTVYLQMNSLKPEDTAVYYCAVDPGYYDEYKYWGQGTQVTVSS	low polyreactivity
QVQLVESGGGLVQAGGSLRLSCAASGFTIVWYAMGWYRQATGKERELVAAISSGVSTYYADSVKGRFTISRDNAKNTVYLQMNSLKPEDTAVYYCAADREYYDEYAGYEYWGQGTQVTVSS	low polyreactivity
QVQLVESGGGLVQAGGSLRLSCAASGFTIWRYAMGWYRQAPWKARELVAAISRGGSTNYADSVKGRFTISRDNAKNTVYLQMNSLKPEDTAVYYCAASVQYRRLKKFYYWGQGTQVTVSS	high polyreactivity
QVQLVESGGGLVQAGGSLRLSCAASGFTIYANAMGWYRQAPGKERELVAAISSNGGSTYYADSVKGRFTISRDNAKNTVYLQMKSLKPEDTAVYSCADYFGSVLRSTIYDYWGQGTQVTVSS	low polyreactivity
QVQLVESGGGLVQAGGSLRLSCAASGFTIYGYAMGWYSQAPGKERELVAAISSSGGRTYYADSVKGRCTISRDNAKNTVYLQMNSLKPEDTAVYYCAAEYRSYRDGYWGQGTQVTVSS	high polyreactivity
QVQLVESGGGLVQAGGSLRLSCAASGFTIYRYAMGWSRQAPGKERELVAAISGGGSRTYYADSVKGRFTISRDNAKNTVYLLMNSLKPEDTAVYYCNADPVKYSYDGYARPRYDYWGQGTQVTVSS	low polyreactivity
QVQLVESGGGLVQAGGSLRLSCAASGFTIYRYAMGWYRQAPGKERELVAAITWSGVSTYYADSVKGRFTISRDNAKNTVYLQMNSLKPEDTAVYYCAATTYSSSSSHDYWGQGTQVTVSS	low polyreactivity
QVQLVESGGGLVQAGGSLRLSCAASGFTIYRYAMGWYRQAPGKERELVASITWSGGSTYYADSVKGRFTISRDNAKNTVYLQMNSLKPEDTAVYYCNALFSWGTGYGSSYGYWGQGTQVTVSS	high polyreactivity
QVQLVESGGGLVQAGGSLRLSCAASGFTIYYYAMGWYRQAPGKERELVASITSGGSTYYADSVKGRFTISRDNAKNTVYLQMHSLKPEDTAVYDCAKTRLHSKEGDYWGQGTQVTVSS	low polyreactivity
QVQLVESGGGLVQAGGSLRLSCAASGFTIYYYAMGWYRQAPGKERELVASITSGGSTYYADSVKGRFTISRDNAKNTVYLQMNSLKPEDTAVYYCAKTRFHSKEGDYWGQGTQVTVSS	low polyreactivity
